For two molecules, Kd and EC50 results are on record in paper PMC13108567 (2026).

One test deals with PD-1 biotinylated dimer (human, UniProt Q15116 25-288, biotin). The test can be described thus: BLI. For orientation: Biolayer interferometry detects binding as a change in optical thickness at a sensor tip.
Test [1] deals with human programmed cell death protein 1 on PD-1 hi transgenic Jurkat cells (human, UniProt Q15116 25-288). The test can be described thus: FACS. A general note: A flow cytometer gives signals particle by particle.
Chain of human programmed cell death protein 1 on PD-1 hi transgenic Jurkat cells (Q15116 25-288): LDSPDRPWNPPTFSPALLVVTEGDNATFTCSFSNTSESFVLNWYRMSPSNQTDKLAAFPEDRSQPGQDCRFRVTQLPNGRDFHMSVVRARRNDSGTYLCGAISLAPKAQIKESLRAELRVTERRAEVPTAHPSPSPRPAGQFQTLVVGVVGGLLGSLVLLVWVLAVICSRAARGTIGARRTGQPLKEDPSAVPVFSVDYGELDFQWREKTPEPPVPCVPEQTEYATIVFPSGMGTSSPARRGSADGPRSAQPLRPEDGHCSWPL

Chain of PD-1 biotinylated dimer (Q15116 25-170): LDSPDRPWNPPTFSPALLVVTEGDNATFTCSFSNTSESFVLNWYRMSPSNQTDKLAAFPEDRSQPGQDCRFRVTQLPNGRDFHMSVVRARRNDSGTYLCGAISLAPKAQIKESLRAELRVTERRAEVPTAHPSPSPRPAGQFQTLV

B1: Fab of anti-PD-1 clone 135c139d6 (Fab, V domains shown)
VH: EVQLVQSGAEVKKPGESLKISCKGSGYSFTNFYIHWVRQAPGQRLEWMGSIYPNYGDTAYNQKFKDRFVFSLDTSVSTAYLQISSLKAEDTAVYYCARGYSYAMDYWGQGTTVTVSS
VL: DIQMTQSPSSVSASVGDRVTITCSASQGISGDLNWYQQKPGKAPKLLIYHTSSLHSGVPSRFSGSGSGTDFTLTISSLQPEDFATYYCQYYSKDLLTFGGGTKLEIK
The Kd is the equilibrium constant for the complex coming apart. A high value points to a looser complex. A word on the EC50: it is the concentration needed to bring the measured effect to its halfway point. A higher EC50 goes with a need for much substance. B1 registered a Kd in the test with PD-1 biotinylated dimer of 16 nM. Further, the EC50 in test [1] is 42 nM.

B2: scFv-His of anti-PD-1 clone 135c139d6 (scFv, V domains shown)
VH: B1 VH
VL: B1 VL
With B2, in the test with PD-1 biotinylated dimer, the Kd worked out at 10 nM. In test [1], this molecule came in with an EC50 of 162 nM.
